Data taken from the domain aggregation screens of Martell et al. (2025).

Test: soluble fraction after stress (log2 fold change); higher = more stays soluble; pooled small domains, quantitative proteomics
Conditions: stress: 75 degC
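Note: 20 min heating vs room temperature control held 20 min.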

First: HMKQENRLKILRKEKGLTQTKLANEIGVSKRTIIAWENDERQIKPDKAQQLADYFGVKEGYLLGYTNN
Second: HMKQESSEDLLNEVIDKVIDSNPDEKNRLLDGELKLVSFFMGQVMKETKGKANPGVINGLIKKKFNI
The “soluble fraction (log2)” value of the first is higher: 0.114 for the first, -0.701 for the second.

“HMKQISNTDELEAMIQKIIEDNSQQVEKFRSGNEKLFGWFVGQVMKNTQGAANPKVVNEILKKSLK” and “HMKQISNTDELESMAKNIIQENPDQVSKFKNGNEKLFGWFVGQMMKSTGGTANPKVVNEILKNLLN” are within 0.2 log units of each other in “soluble fraction (log2)” value: 0.318 for the first, 0.134 for the second.

Going from “HMKQLIGYSVIDIKMGKLGEISFVNSKTAQALIHVSKDGKGFYFPWHKQFVKNIDAEKGIMEVEIPKEFLD” to “HMKQLNKRQNDILSFAEKQGYVSVENLAKLFSVTQQTIRRDINYLSDNELLVRTHGGAYYSS”, the “soluble fraction (log2)” value falls from -0.974 to -1.18.

First: HMKQNRNLPVQIINNGKIIESVMTEFNLDIDWVYSEAKRLGYKNIKDIFYAGINRDGQFFIVPLF
Second: HMKQNVEAVIKERAIEKARAQVKAVSTHMALEAQSLSKEQLEFEIERIAAQIIDKMPSDFWND
The “soluble fraction (log2)” value of the first is lower: -3.06 for the first, -1.28 for the second.

Going from “HMKQPNFTVIETKILELLFQKDLSSREMQEILKISKDNLIFALQNLLEQEKIVLQTSNTYTVN” to “HMKQPVPDEIYFKRLANATEALGRYPRASERKKFGLNMSKRRYPTLTDFINKAIELGYVEDFR”, the “soluble fraction (log2)” value rises from -1.88 to -0.833.

Going from “HMKQQAYEQGKAAYQSGDWLRAVTQLGQVKEAGEKNGEVDHLLGNAYMKLGQFESAAYAYNSALEDVA” to “HMKQTMIVVMEKDAPQSQIDDMVKRIEGLGLKAHTIVGTQRTVVAAIGEKREDTRESLAGSPGVAEVVPIL”, the “soluble fraction (log2)” value falls from 0.53 to 0.239.

First: HMKQYVEPASETEKMVVELWEKVLLTEKIGMHDDFFELGGHSLKAMRLISLYHQEFNVRLSLKSLFEKLK
Second: HMKRAVGLDEYRDSIVLKKPEGYTEESYAAYKNAYDALMALDSKETTAEMFANAKSAFEAAQAGLVQKP
The “soluble fraction (log2)” value of the first is lower: -0.241 for the first, 0.119 for the second.

First: HMKRIFEKKVVTESLNGLRLDKAAATLFADFSRNELGQWIKDEALLVNGKAKKVKEKVSEGDVLALDVELI
Second: HMKRISDEDLLVMRRIDEVHTYHPTWGYRTITRILRRDDHLLINPKKVRRIMRDMGIYTIYPK
The “soluble fraction (log2)” value of the first is higher: 0.203 for the first, -0.0338 for the second.

First: HMKRITAVISQKKGRDYYYIIVSYYLSNGKRVQRWIKTEFPINGNNKRKLEQKRIEVLQEWQDKLV
Second: HMKRLQEQAYDYLKELILSGKMIENEIYSETKLASEIGISRTPIRDALQRLSQDGFIDIIPSKGFRIH
The “soluble fraction (log2)” value of the first is lower: -1.23 for the first, -0.734 for the second.

“HMKRMSKKQLSAVIEKYFSSQPGVTLTLKDIFRNLHLDTHPLKMIALDILEEMSWDDVIMKVSDTSYALNT” and “HMKRNLESVLDHIEGIGPKRRKALYKHFGNLDAMRVAELEELESVEGMNKKAALAVYEFFRRNS” are within 0.2 log units of each other in “soluble fraction (log2)” value: 0.194 for the first, 0.386 for the second.

Compared with “HMKRNTKAEVLEILLNSGETPVSGERLAENLGISRNAVWKAVTALKEDGYNISAKRNSGYILNKS”, “HMKRREENLRRLALSTAERVKRKGKKEILNPMSPQERRIIHLTLQNNKEVVTHSEGEDPYRRVIISPRN” is lower in “soluble fraction (log2)” value: -0.143 for the first, -0.397 for the second.

First: HMKRRSLQVGDIVQVRSLNVKGEVVSIGKNEVVVAVGRLQMRAGFDDLDFKERPKEEREVESV
Second: HMKRSFGSVRQLRSGNYQARYTGPDTVRHTSPVTYTSKMDAEAWLVDERRKISSGTWTPPAR
The “soluble fraction (log2)” value of the first is lower: -0.467 for the first, -0.193 for the second.

Going from “HMKRSVIVTAERAEVRQKADEGSALVFEAEKNVSLEYLEAAPGGWVKVRHLDGQSGFVRGNQI” to “HMKRTKLEEATEWLRDRLSDGVKYNGEELLREGESADMARRTLRRAAQELGVIIERERGARGRWFWSLP”, the “soluble fraction (log2)” value falls from -0.309 to -0.897.

“HMKRTLLLEGRTIPYELTQKPVKNINIRVHADGSVRVSAGPWVSPEAVDAVLRQRSAFLLRALDQFAAQAP” and “HMKRVPFAFAGDMLRWAAWLYHVEKRTQNEIAEELEVSRQTVANYLSEAMSQGLVQVQLRSDIIE” are within 0.2 log units of each other in “soluble fraction (log2)” value: -1.91 for the first, -1.98 for the second.

“HMKSAIGEEKAENFAFADLGMDPLSAEGVRTEFGFEQGQFVYKVYFTADGTEYEYWIKASDGSVVKKGMDL” and “HMKSAIKQNILLYLSNKGVTSYEFYKISGVTRGILQQSNGISEDNIAKFLAYAPDVNIEWLLTGKGDMLKH” are within 0.2 log units of each other in “soluble fraction (log2)” value: -1.53 for the first, -1.41 for the second.

First: HMKSATGKIPDFISDLPVDEFVRELIVTNAFQPLNKFKEVQNHIGSALKIYVDELTEKRANGTVHILYSHK
Second: HMKSAYADVAIAKVQDYVNVRAENNEDSEVLGKLYNNSAATVLETTDDGWYKISSGSVTGYVKSEYVVVG
The “soluble fraction (log2)” value of the first is higher: 0.46 for the first, -0.111 for the second.

First: HMKSEMYIDLSNALLKMSERDKELLTYRYTMEMSSKEISQITGIKESNVNSYIRRAREKLLKIFNAMNK
Second: HMKSFDERQAALNELAKVIEGTGRKAEQDAEFRREQNQLMIDKIDEQLKGDLTDSQREELKKERAALARK
The “soluble fraction (log2)” value of the first is lower: -3.73 for the first, 0.174 for the second.

Compared with “HMKSGLLNLSTRKQEKIKQALLSEFSNVSLLEAKVANIVTLAEISRGSFYTYFEDIYDAYQWLASI”, “HMKSIFIRADELAAELDVSKALAYKMINQWNEELKAKGYTTVGGRVSRQYYYEKIYGAENVFDF” is lower in “soluble fraction (log2)” value: -0.513 for the first, -1.76 for the second.

“HMKSILDDVVGLGPVRKKALLSAAGGFRKLRDMDVDEVIGLGAVPEEVAREVVTVLAQYNGERDRVEGL” and “HMKSILSEIPGIGPKKRKSLMMQFGSVKNISEASLKDLSSTKGINSNLSKEIFNFFSVEKNN” are within 0.2 log units of each other in “soluble fraction (log2)” value: -0.146 for the first, -0.0299 for the second.

With “HMKSKNILLGEYKGKEVHVGEGKYGPFILYDKKFKSIGAYLTENSLMLKDLTIEDYSKIMKFTENSNSKS” the “soluble fraction (log2)” value was -0.91.
